The record followed here is PMC10775985, “Malaria parasite centrins can assemble by Ca^2+-inducible condensation” (PLOS Pathogens, 2023).

Data set [1] concerns the target PfCen1-6His (P. falciparum centrin 1, 6His-tagged) (P. falciparum). The experiment in a line: turbidity (light scattering); range of PfCen1-6His concentrations to find the saturation concentration; CaCl2 to 2 mM; 50 mM BisTris pH 7.1, 37°C, no salt or PEG.
The target is the same in data set [2]. As to the kind of experiment: turbidity (light scattering); PfCen1-6His and PfCen3-6His at individually subcritical concentrations, alone with BSA to a total protein concentration of >20 μM or as a mixture; calcium, then EDTA; 50 mM BisTris pH 7.1, 37°C.
In data set [3] the target is PfCen3-6His (P. falciparum centrin 3, 6His-tagged) (P. falciparum). The data set is described as above.
Data set [4] concerns the molecule itself. As to the kind of experiment: light microscopy of droplets in purified protein solutions; self-assembly into droplets; concentrated recombinant centrin (100-200 μM), 2 mM CaCl2 added, then 10 mM EDTA; 50 mM BisTris pH 7.1, 37°C.

For the molecule “PfCen1-6His (P. falciparum centrin 1, 6His-tagged) (natural protein)”, the csat (critical saturation concentration) in data set [1] lay within 10 to 15 µM. Further, the csat (saturation concentration) in data set [2] came to 10 µM.
For “PfCen3-6His (P. falciparum centrin 3, 6His-tagged) (natural protein)”, the csat (saturation concentration) in data set [3] was 10 µM.

B1: ScCdc31-6His (Saccharomyces cerevisiae centrin Cdc31) (natural protein, UniProt P06704 1-161, looked up)
chain: MSKNRSSLQSGPLNSELLEEQKQEIYEAFSLFDMNNDGFLDYHELKVAMKALGFELPKREILDLIDEYDSEGRHLMKYDDFYIVMGEKILKRDPLDEIKRAFQLFDDDHTGKISIKNLRRVAKELGETLTDEELRAMIEEFDLDGDGEINENEFIAICTDS
notes: Saccharomyces cerevisiae centrin Cdc31, 161 aa, 19 kDa; source: recombinant, pET-28 construct from a synthetic codon optimized gene
For B1, the binding result in data set [4] is “binds”.

B2: HsCen2-6His (human centrin 2, 6His-tagged) (natural protein, UniProt P41208 1-172, looked up)
chain: MASNFKKANMASSSQRKRMSPKPELTEEQKQEIREAFDLFDADGTGTIDVKELKVAMRALGFEPKKEEIKKMISEIDKEGTGKMNFGDFLTVMTQKMSEKDTKEEILKAFKLFDDDETGKISFKNLKRVAKELGENLTDEELQEMIDEADRDGDGEVSEQEFLRIMKKTSLY
notes: human centrin 2 (HsCen2); mass spectrometry confirmed full length except for cleavage of methionine 1; source: E. coli BL21-CodonPlus (DE3), pET-28, purified (Ni-NTA); not shown: 6His, C-terminal, kept
Turning to B2, the binding result in data set [4] is listed as “binds”.
